Measured values taken from patent US20260001928A1 (CORTERIA PHARMACEUTICALS, priority 2022, published 2026).
*1 amine or outer side, *2 acyl side, *3 side chain or, on linkers, in order; H or OH if unused. Where no end group is shown, it is not given here. Side-chain parts run from the residue outwards. [ ]: non-standard residue; d: D form. The star is where a group is joined. C18 diacid = O=C(O)CCCCCCCCCCCCCCCCC(=O)*; C16 diacid = O=C(O)CCCCCCCCCCCCCCC(=O)*; γGlu = O=C(O)[C@H](CCC(=O)[*:2])N[*:1]; NMeI = CC[C@H](C)[C@H](NC)C(=O)O; Api = NC1(C(=O)O)CCNCC1; AEEA = NCCOCCOCC(=O)O; Aib = CC(C)(N)C(=O)O

T1: CRF1R receptor (UniProt P34998 24-415, limits assumed)
T1 sequence (looked up): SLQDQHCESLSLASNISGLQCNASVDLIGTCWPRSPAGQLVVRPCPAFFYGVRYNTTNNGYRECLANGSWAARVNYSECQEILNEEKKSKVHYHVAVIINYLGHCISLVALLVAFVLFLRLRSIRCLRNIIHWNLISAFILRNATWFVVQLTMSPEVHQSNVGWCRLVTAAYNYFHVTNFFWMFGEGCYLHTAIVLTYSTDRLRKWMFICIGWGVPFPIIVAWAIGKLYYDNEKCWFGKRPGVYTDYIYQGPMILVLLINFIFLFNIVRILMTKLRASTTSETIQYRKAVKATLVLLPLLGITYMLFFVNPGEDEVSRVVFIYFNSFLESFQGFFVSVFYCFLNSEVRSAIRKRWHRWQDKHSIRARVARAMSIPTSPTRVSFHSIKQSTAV


Columns and labels:
[1] = target: T1, CRF1R receptor; assay: cell-based or functional assay
[2] = target: human corticotropin-releasing factor 2a (CRF2a receptor) (human), Q13324; assay: cell-based or functional assay
human corticotropin-releasing factor 2a (CRF2a receptor) (human), Q13324, sequence (Q13324 20-411): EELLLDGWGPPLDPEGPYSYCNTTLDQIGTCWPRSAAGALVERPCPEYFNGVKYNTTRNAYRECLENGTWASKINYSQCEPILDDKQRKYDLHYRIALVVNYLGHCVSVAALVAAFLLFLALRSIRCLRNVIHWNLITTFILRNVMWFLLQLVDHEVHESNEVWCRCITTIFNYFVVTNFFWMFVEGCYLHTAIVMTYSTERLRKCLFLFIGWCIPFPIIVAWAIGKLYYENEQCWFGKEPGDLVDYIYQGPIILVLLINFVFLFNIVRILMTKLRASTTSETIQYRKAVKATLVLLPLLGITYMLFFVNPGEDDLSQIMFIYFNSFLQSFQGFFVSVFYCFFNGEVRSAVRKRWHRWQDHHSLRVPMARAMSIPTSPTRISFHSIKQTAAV

Row | Emax (% I) [1] [%] | EC50 [nM] (cAMP) [2] | Binder
1 | 0 | 1.74 | Ac-VLSLD[dV]PIKLK([AEEA-AEEA-γGlu-C18 diacid])KILLEQEKQKKQREQAETNAQILAQV-NH2 (SMILES CC[C@H](C)[C@H](NC(=O)[C@H](CCC(N)=O)NC(=O)[C@H](C)NC(=O)[C@H](CC(N)=O)NC(=O)[C@@H](NC(=O)[C@H](CCC(=O)O)NC(=O)[C@H](C)NC(=O)[C@H](CCC(N)=O)NC(=O)[C@H](CCC(=O)O)NC(=O)[C@H](CCCNC(=N)N)NC(=O)[C@H](CCC(N)=O)NC(=O)[C@H](CCCCN)NC(=O)[C@H](CCCCN)NC(=O)[C@H](CCC(N)=O)NC(=O)[C@H](CCCCN)NC(=O)[C@H](CCC(=O)O)NC(=O)[C@H](CCC(N)=O)NC(=O)[C@H](CCC(=O)O)NC(=O)[C@H](CC(C)C)NC(=O)[C@H](CC(C)C)NC(=O)[C@@H](NC(=O)[C@H](CCCCN)NC(=O)[C@H](CCCCNC(=O)COCCOCCNC(=O)COCCOCCNC(=O)CC[C@H](NC(=O)CCCCCCCCCCCCCCCCC(=O)O)C(=O)O)NC(=O)[C@H](CC(C)C)NC(=O)[C@H](CCCCN)NC(=O)[C@@H](NC(=O)[C@@H]1CCCN1C(=O)[C@H](NC(=O)[C@H](CC(=O)O)NC(=O)[C@H](CC(C)C)NC(=O)[C@H](CO)NC(=O)[C@H](CC(C)C)NC(=O)[C@@H](NC(C)=O)C(C)C)C(C)C)[C@@H](C)CC)[C@@H](C)CC)[C@@H](C)O)C(=O)N[C@@H](CC(C)C)C(=O)N[C@@H](C)C(=O)N[C@@H](CCC(N)=O)C(=O)N[C@H](C(N)=O)C(C)C) [SEQ ID NO 101]
2 | 4 | 1 | Ac-IVLSLD[dV]PIKLK([AEEA-AEEA-γGlu-C18 diacid])KILLEQEKQKKQREQAETN[Api]QILAQV-NH2 (SMILES CC[C@H](C)[C@H](NC(C)=O)C(=O)N[C@H](C(=O)N[C@@H](CC(C)C)C(=O)N[C@@H](CO)C(=O)N[C@@H](CC(C)C)C(=O)N[C@@H](CC(=O)O)C(=O)N[C@@H](C(=O)N1CCC[C@H]1C(=O)N[C@H](C(=O)N[C@@H](CCCCN)C(=O)N[C@@H](CC(C)C)C(=O)N[C@@H](CCCCNC(=O)COCCOCCNC(=O)COCCOCCNC(=O)CC[C@H](NC(=O)CCCCCCCCCCCCCCCCC(=O)O)C(=O)O)C(=O)N[C@@H](CCCCN)C(=O)N[C@H](C(=O)N[C@@H](CC(C)C)C(=O)N[C@@H](CC(C)C)C(=O)N[C@@H](CCC(=O)O)C(=O)N[C@@H](CCC(N)=O)C(=O)N[C@@H](CCC(=O)O)C(=O)N[C@@H](CCCCN)C(=O)N[C@@H](CCC(N)=O)C(=O)N[C@@H](CCCCN)C(=O)N[C@@H](CCCCN)C(=O)N[C@@H](CCC(N)=O)C(=O)N[C@@H](CCCNC(=N)N)C(=O)N[C@@H](CCC(=O)O)C(=O)N[C@@H](CCC(N)=O)C(=O)N[C@@H](C)C(=O)N[C@@H](CCC(=O)O)C(=O)N[C@H](C(=O)N[C@@H](CC(N)=O)C(=O)NC1(C(=O)N[C@@H](CCC(N)=O)C(=O)N[C@H](C(=O)N[C@@H](CC(C)C)C(=O)N[C@@H](C)C(=O)N[C@@H](CCC(N)=O)C(=O)N[C@H](C(N)=O)C(C)C)[C@@H](C)CC)CCNCC1)[C@@H](C)O)[C@@H](C)CC)[C@@H](C)CC)C(C)C)C(C)C) [SEQ ID NO 109]

The remaining lines, values behind:

Row | Binder | Emax (% I) [1] [%] | EC50 [nM] (cAMP) [2]
3 | [NMeI]VLSLD[dV]PIKLK([γGlu-C16 diacid])KILLEQEKQKKQREQAETNAQILAQV-NH2 (N-terminus assumed; SMILES CC[C@H](C)[C@H](NC)C(=O)N[C@H](C(=O)N[C@@H](CC(C)C)C(=O)N[C@@H](CO)C(=O)N[C@@H](CC(C)C)C(=O)N[C@@H](CC(=O)O)C(=O)N[C@@H](C(=O)N1CCC[C@H]1C(=O)N[C@H](C(=O)N[C@@H](CCCCN)C(=O)N[C@@H](CC(C)C)C(=O)N[C@@H](CCCCNC(=O)CC[C@H](NC(=O)CCCCCCCCCCCCCCC(=O)O)C(=O)O)C(=O)N[C@@H](CCCCN)C(=O)N[C@H](C(=O)N[C@@H](CC(C)C)C(=O)N[C@@H](CC(C)C)C(=O)N[C@@H](CCC(=O)O)C(=O)N[C@@H](CCC(N)=O)C(=O)N[C@@H](CCC(=O)O)C(=O)N[C@@H](CCCCN)C(=O)N[C@@H](CCC(N)=O)C(=O)N[C@@H](CCCCN)C(=O)N[C@@H](CCCCN)C(=O)N[C@@H](CCC(N)=O)C(=O)N[C@@H](CCCNC(=N)N)C(=O)N[C@@H](CCC(=O)O)C(=O)N[C@@H](CCC(N)=O)C(=O)N[C@@H](C)C(=O)N[C@@H](CCC(=O)O)C(=O)N[C@H](C(=O)N[C@@H](CC(N)=O)C(=O)N[C@@H](C)C(=O)N[C@@H](CCC(N)=O)C(=O)N[C@H](C(=O)N[C@@H](CC(C)C)C(=O)N[C@@H](C)C(=O)N[C@@H](CCC(N)=O)C(=O)N[C@H](C(N)=O)C(C)C)[C@@H](C)CC)[C@@H](C)O)[C@@H](C)CC)[C@@H](C)CC)C(C)C)C(C)C) [SEQ ID NO 68] | 8 | 0.05
4 | Ac-IVLSLD[dV]PIKLK([AEEA-AEEA-γGlu-C18 diacid])KILLEQEKQKKQREQAETN[Aib]QILAQV-NH2 (SMILES CC[C@H](C)[C@H](NC(C)=O)C(=O)N[C@H](C(=O)N[C@@H](CC(C)C)C(=O)N[C@@H](CO)C(=O)N[C@@H](CC(C)C)C(=O)N[C@@H](CC(=O)O)C(=O)N[C@@H](C(=O)N1CCC[C@H]1C(=O)N[C@H](C(=O)N[C@@H](CCCCN)C(=O)N[C@@H](CC(C)C)C(=O)N[C@@H](CCCCNC(=O)COCCOCCNC(=O)COCCOCCNC(=O)CC[C@H](NC(=O)CCCCCCCCCCCCCCCCC(=O)O)C(=O)O)C(=O)N[C@@H](CCCCN)C(=O)N[C@H](C(=O)N[C@@H](CC(C)C)C(=O)N[C@@H](CC(C)C)C(=O)N[C@@H](CCC(=O)O)C(=O)N[C@@H](CCC(N)=O)C(=O)N[C@@H](CCC(=O)O)C(=O)N[C@@H](CCCCN)C(=O)N[C@@H](CCC(N)=O)C(=O)N[C@@H](CCCCN)C(=O)N[C@@H](CCCCN)C(=O)N[C@@H](CCC(N)=O)C(=O)N[C@@H](CCCNC(=N)N)C(=O)N[C@@H](CCC(=O)O)C(=O)N[C@@H](CCC(N)=O)C(=O)N[C@@H](C)C(=O)N[C@@H](CCC(=O)O)C(=O)N[C@H](C(=O)N[C@@H](CC(N)=O)C(=O)NC(C)(C)C(=O)N[C@@H](CCC(N)=O)C(=O)N[C@H](C(=O)N[C@@H](CC(C)C)C(=O)N[C@@H](C)C(=O)N[C@@H](CCC(N)=O)C(=O)N[C@H](C(N)=O)C(C)C)[C@@H](C)CC)[C@@H](C)O)[C@@H](C)CC)[C@@H](C)CC)C(C)C)C(C)C) [SEQ ID NO 98] | -2 | 0.55
